Test results: US20020055130

Target: recombinant kinase inactive SEK1 (SEK1 K→M)

B1: HA-tagged full length mouse MEKK1 (196 kDa; plasmid MEKK1.cp4, expressed in HEK293 cells) (protein)
chain: MGYPYDVDYASMAAAAGDRASSSGFPGAAAASPEAGGGGGGGGALQGSGAPAAGAAGLLREPGSAGRERADWRRRQLRKVRSVELDQLPEQPLFLAAASPPCPSTSPSPEPADAAAGASRFQPAAGPPPPGAASRCGSHSAELAAARDSGARSPAGAEPPSAAAPSGREMENKETLKGLHKMEDRPEERMIREKLKATCMPAWKHEWLERRNRRGPVVVKPIPIKGDGSEVNNLAAEPQGEGQAGSAAPAPKGRRSPSPGSSPSGRSVKPESPGVRRKRVSPVPFQSGRITPPRRAPSPDGFSPYSPEETSRRVNKVMRARLYLLQQIGPNSFLIGGDSPDNKYRVFIGPQNCSCGRGAFCIHLLFVMLRVFQLEPSDPMLWRKTLKNFEVESLFQKYHSRRSSRIKAPSRNTIQKFVSRMSNSHTLSSSSTSTSSSENSIKDEEEQMCPICLLGMLDEESLTVCEDGCRNKLHHHCMSIWAEECRRNREPLICPLCRSKWRSHDFYSHELSSPVESPASLRAVQQPSSPQQPVAGSQRRNQESSFNLTHFGTQQIPSAYKDLAEPWIQVFGMELVGCLFSRNWNVREMALRRLSHDVSGALLLANGESTGNSGGGSGGSLSAGAASGSSQPSISGDVVEACCSVLSIVCADPVYKVYVAALKTLRAMLVYTPCHSLAERIKLQRLLRPVVDTILVKCADANSRTSQLSISTVLELCKGQAGELAVGREILKAGSIGVGGVDYVLSCILGNQAESNNWQELLGRLCLIDRLLLEFPAEFYPHIVSTDVSQAEPVEIRYKKLLSLLTFALQSIDNSHSMVGKLSRRIYLSSARMVTAVPAVFSKLVTMLNASGSTHFTRMRRRLMAIADEVEIAEVIQLGVEDTVDGHQDSLQAVAPTSCLENSSLEHTVHREKTGKGLSATRLSASSEDISDRLAGVSVGLPSSTTTEQPKPAVQTKGRPHSQCLNSSPLSHAQLMFPAPSAPCSSAPSVPDISKHRPQAFVPCKIPSASPQTQRKFSLQFQRNCSEHRDSDQLSPVFTQSRPPPSSNIHRPKPSRPVPGSTSKLGDATKSSMTLDLGSASRCDDSFGGGGNSGNAVIPSDETVFTPVEDKCRLDVNTELNSSIEDLLEASMPSSDTTVTFKSEVAVLSPEKAENDDTYKDDVNHNQKCKEKMEAEEEEALAIAMAMSASQDALPIVPQLQVENGEDIIIIQQDTPETLPGHTKAKQPYREDAEWLKGQQIGLGAFSSCYQAQDVGTGTLMAVKQVTYVRNTSSEQEEVVEALREEIRMMGHLNHPNIIRMLGATCEKSNYNLFIEWMAGGSVAHLLSKYGAFKESVVINYTEQLLRGLSYLHENQIIHRDVKGANLLIDSTGQRLRIADFGAAARLASKGTGAGEFQGQLLGTIAFMAPEVLRGQQYGRSCDVWSVGCAIIEMACAKPPWNAEKHSNHLALIFKIASATTAPSIPSHLSPGLRDVAVRCLELQPQDRPPSRELLKHPVFRTTW
With B1 the “phosphorylation of SEK1 K→M by immunoprecipitates (in vitro kinase assay)” value was “When the full length MEKK1 protein was immunoprecipitated by the 12CA5 antibody it had measureable autophosphorylation and activity towards SEK1”.

B2: MEKK1 cleavage fragment C (protein)
chain: GHQDSLQAVAPTSCLENSSLEHTVHREKTGKGLSATRLSASSEDISDRLAGVSVGLPSSTTTEQPKPAVQTKGRPHSQCLNSSPLSHAQLMFPAPSAPCSSAPSVPDISKHRPQAFVPCKIPSASPQTQRKFSLQFQRNCSEHRDSDQLSPVFTQSRPPPSSNIHRPKPSRPVPGSTSKLGDATKSSMTLDLGSASRCDDSFGGGGNSGNAVIPSDETVFTPVEDKCRLDVNTELNSSIEDLLEASMPSSDTTVTFKSEVAVLSPEKAENDDTYKDDVNHNQKCKEKMEAEEEEALAIAMAMSASQDALPIVPQLQVENGEDIIIIQQDTPETLPGHTKAKQPYREDAEWLKGQQIGLGAFSSCYQAQDVGTGTLMAVKQVTYVRNTSSEQEEVVEALREEIRMMGHLNHPNIIRMLGATCEKSNYNLFIEWMAGGSVAHLLSKYGAFKESVVINYTEQLLRGLSYLHENQIIHRDVKGANLLIDSTGQRLRIADFGAAARLASKGTGAGEFQGQLLGTIAFMAPEVLRGQQYGRSCDVWSVGCAIIEMACAKPPWNAEKHSNHLALIFKIASATTAPSIPSHLSPGLRDVAVRCLELQPQDRPPSRELLKHPVFRTTW
For B2, the “phosphorylation of SEK1 K→M by immunoprecipitates (in vitro kinase assay)” value was “a stronger SEK1 phosphorylation signal was detected”.
